# Biological target: TNFa, P01375
# Experiment: not stated (told as a known affinity); low affinity dAb, known affinity, lower bound
# Conditions: remark: other sources report otherwise
# Chain of TNFa, P01375 (P01375 77-233 limits assumed): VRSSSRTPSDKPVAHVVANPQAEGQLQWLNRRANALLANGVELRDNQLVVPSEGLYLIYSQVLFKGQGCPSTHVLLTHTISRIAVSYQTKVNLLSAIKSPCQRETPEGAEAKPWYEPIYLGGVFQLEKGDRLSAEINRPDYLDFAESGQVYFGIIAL
binder,measurement,value
"Vk(TAR1-5) (protein, here or on the partner: biotinylated (sites not given)) VL: DIQMTQSPSSLSASVGDRVTITCRASQSIFMNLLWYQQKPGKAPKLLIYNASVLQSGVPSRFSGSGSGTDFTLTISSLQPEDFATYYCQQVVWRPFTFGQGTKVEIKR",Kd,> 5 µM

# From US20080038735A1
